The EC50 is the concentration that produces a half-maximal response. A higher EC50 goes with lower potency in that assay.

Our source for the EC50 values is patent US12559545 (VANDERBILT UNIVERSITY, dated 2026).

One assay addresses T1, HeV-G.
T1 chain: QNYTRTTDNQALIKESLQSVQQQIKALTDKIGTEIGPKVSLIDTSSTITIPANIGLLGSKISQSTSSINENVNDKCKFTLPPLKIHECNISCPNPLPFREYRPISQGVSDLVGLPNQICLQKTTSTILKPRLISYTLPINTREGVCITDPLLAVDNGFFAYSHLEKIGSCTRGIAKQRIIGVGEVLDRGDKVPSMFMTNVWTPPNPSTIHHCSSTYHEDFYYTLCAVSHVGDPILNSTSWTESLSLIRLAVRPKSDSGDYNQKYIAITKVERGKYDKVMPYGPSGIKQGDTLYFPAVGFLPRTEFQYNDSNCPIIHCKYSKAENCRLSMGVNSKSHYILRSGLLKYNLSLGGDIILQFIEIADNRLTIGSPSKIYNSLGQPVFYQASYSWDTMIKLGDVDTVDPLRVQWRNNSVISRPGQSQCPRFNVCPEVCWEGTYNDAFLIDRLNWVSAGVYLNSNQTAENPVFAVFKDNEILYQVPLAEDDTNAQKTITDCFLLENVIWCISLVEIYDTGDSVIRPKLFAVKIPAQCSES

Another assay concerns the target T2, NiVM-G.
T2 chain: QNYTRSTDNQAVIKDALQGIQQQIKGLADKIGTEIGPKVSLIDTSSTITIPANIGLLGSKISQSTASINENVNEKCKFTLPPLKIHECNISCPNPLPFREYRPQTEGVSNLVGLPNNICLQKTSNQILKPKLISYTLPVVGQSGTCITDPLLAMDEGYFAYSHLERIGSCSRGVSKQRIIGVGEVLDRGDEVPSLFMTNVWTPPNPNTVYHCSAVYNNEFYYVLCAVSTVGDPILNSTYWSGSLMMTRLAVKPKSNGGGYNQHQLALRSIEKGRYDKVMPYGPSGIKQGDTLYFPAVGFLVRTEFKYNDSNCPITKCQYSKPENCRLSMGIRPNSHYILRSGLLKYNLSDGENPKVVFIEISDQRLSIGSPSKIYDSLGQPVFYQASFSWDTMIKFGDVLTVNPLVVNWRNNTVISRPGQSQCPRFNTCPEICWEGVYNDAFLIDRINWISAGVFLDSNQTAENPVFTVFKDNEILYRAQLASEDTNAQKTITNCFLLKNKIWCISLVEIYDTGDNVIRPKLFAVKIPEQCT

B1: HENV-170 (antibody, V domains shown)
VH: EVQLLESGGGLVQPGGSLRLSCAASGFTFSSYTMSWVRQAPGKGLEWVSGISGSGGNTYYAGSVKGRFTISRDNSKNTLYLQMNSLRAEDTAVYYCAKDGYTGQQLMRRGPWWFDPWGQGTLVTVSS
VL: SYVLTQPPSVSVAPGQTARITCGGNNIGSKSVHWYQQKPGQAPVLVVYDDSDRPSGIPERFSGSKSGNTATLTISRVEAGDEADYYCQVWDSSSDHVVFGGGTKLTVL
On to B1, for which the EC50 in the assay with HeV-G stood at 0.518 nM; with NiVM-G, 0.378 nM.

B2: HENV-150 (antibody, V domains shown)
VH: EVQLLESGGGLVQPGGSLRLSCAASGFTFSSSAMSWVRQTPGKGLEWVSTISGSGANTYYAASVKGRFPISRDNSKNTLFLQMNSLRAEDTAVYYCAKVSTVTFGGHVPRGSYFDYWGQGTQVTVSS
VL: SYVLTQPPSVSVAPGQTARIPCGGNNIGSKSVHWYQQKPGQAPVLVVYDENDRPSGIPERFSASKSGNTATLTISRVEAGDEADYYCQVWDSRSDHYVFGTGTKVTVL
Regarding B2, the EC50 with HeV-G was found to be 0.328 nM; in the assay with NiVM-G, 0.27 nM.

B3: HENV-98 (antibody, V domains shown)
VH: AVQLVESGGGLVQPGGSLRLSCEASGFTFSGYWMSWVRQAPGKGLEWVANIKGDGSEKYYVDSVKGRFTIFRDNAKTSLYLQVNSLRAEDTAVYYCARERHFLAARPGYYIYSGLDVWGPGTTVTVSS
VL: DIQMTQSPSSLSASVGDRVTITCRASQSIDNYLNWYQQKPGKVPKLLIYAASNLQSGVPSKFSGGGSGTDFTLTISSLQPDDFATYYCQQSFGTPRTFGQGTRVEIK
In the case of B3, the EC50 with HeV-G is 0.434 nM; in the assay with NiVM-G, 0.396 nM.

B4: HENV-141 (antibody, V domains shown)
VH: QVQLVQSGAEVKKPGSSVKVSCKASGGTFSSYTISWVRQAPGQGLEWMGRIIPISGITNYAQKFQGRVTITADKSTSTAYMELSSLRSEDTAVYYCAKDCYYGSGTYYGCRADYQWHHTMDVWGQGTTVTVSS
VL: DIQMTQSPSSLSASVGDRVTITCRASQGIRNDLGWFQQKPGKAPKRLIYAASSLQSGVPSRFSGSGSGTEFTLTISSLQPEDFATYFCLQHNTYPLTFGQGTKVEIK
For the molecule B4, the values for the EC50 with HeV-G and in the assay with NiVM-G were 0.326 nM and 0.266 nM, respectively.

B5: HENV-142 (antibody, V domains shown)
VH: QVRLQESGPRLVKPSQTLSLTCTVSGGSISSRDYYWSWIRQHPGKGLEWIGYIYYSGTTYYNPSLESRVTLSLDTSKNQFSLDLTSVTAADTAVYHCARVWLGGGVFDFWGQGTLVTVSA
VL: EIVMTQSPDTLSVSPGERATLSCRASHSVTTNLAWYQQRPGQAPRLLIFDASTRATGIPARFSGSGSGTEFTLTIGSLQSEDFAVYYCQQYNDGRTFGQGTKVEIK
Regarding B5, the half-maximal effective concentration (EC50) with HeV-G was determined as 1.86 nM; in the assay with NiVM-G, 1.03 nM.

B6: HENV-226 (antibody, V domains shown)
VH: EERLVQSGGGLAQPGQSLRLSCAGFGFTFTRYEMNWVRQAPGKGLEWIAHISTRGDTISYADSVKGRATISRDDTNNSLDLQMDSLRAEDTAIYFCARDRGSLSTRPPDSYHYYYHGMDVWGQGTTVIVSS
VL: EIVLTQSPATLSLSPGERATLSCRASQSIDTYLAWYQQKPGQAPRLLIYDASNRATGIPARFSGSGSGTDFSLTISSLEPDDFAVYYCQQRSNRPPRYTFGLGTRLEIK
For the molecule B6, the concentration for a half-maximal effect (EC50) with NiVM-G was found to be 0.259 nM.

B7: HENV-100 (antibody, V domains shown)
VH: QVQLVQSGAEVKKPGASVKVSCKASGYTFTSYYINWVRQAPGQGLEWVGTINPSGGSTTYAQKFQGRVTVTRDTSTSTVYMDLSGLRSGDTAVYYCARDRKGLAATPVYSDYYYGMDVWGQGTTVTVSS
VL: EIVLTQSPATLSLSPGERATLSCRASQSVSSFLAWYQQKPGQAPRLLISDASKRATGIPARFSGSGSGTDFSLTISSLEAEDFAVYYCQQSTNWRITFGQGTRLELK
On to B7, for which the EC50 with HeV-G amounted to 0.469 nM; in the assay with NiVM-G, 0.316 nM.

B8: HENV-58 (antibody, V domains shown)
VH: QVQLVQSGAEVKKPGSSVKVSCKASGGTFSNYVISWVRQAPGQGFEWMGRIIPMIGISNYAQKFQDRVTITADKDESTTTAYMELRGLRSEDTAMYYCASSTVTEVGAWGQGTLVTVSS
VL: AIQLTQSPSSLSASIGDRVTITCRASQGISSALAWFQQKPGKPPILLIYDASSLESGVPARFSGSGSGTDFTLTISSLQPEDFATYYCQQFYNHPLTFGPGTKVDIK
As to B8, the values for the EC50 with HeV-G and with NiVM-G were 1.14 nM and 0.739 nM, respectively.

B9: HENV-122 (antibody, V domains shown)
VH: EVQLLESGGGLVQPGGSLRLSCAASGFTFSTNAMSWVRQAPGKGLEWVSTVSGSGAHPNYGDSVKGRFTISRVNSKNTLFLQMSSLRAEDTAIYYCARVSTVTVGGHIPRGYYFDYWGQGTLVTVSS
VL: EILLTQSPGTLSLSPGERATLSCRASQSASSSYLAWYQQKPGQAPRLLIYGASTRATGIPDRFSGSGSGTEFTLTISRLESEDFAVYYCHHYGSSRTFGQGTKVEVK
For the molecule B9, the EC50 with HeV-G was 0.387 nM; with NiVM-G it was 0.407 nM.

B10: HENV-117 (antibody, V domains shown)
VH: QVQLQQWGAGLLKPSETLSLTCDLSGGSFTNYYWTWIRHLPGKGLEWLGEINHSGRTNYSPSLKSRVTISVDTSKNQFSLRLSSVTAADTAVYYCARDIRKLAPKPHSYDLYYGMDVWGQGTTVTVSS
VL: EIVLTQSPGTLSLSPGERATLSCRASQSVGSNYLTWYQQKPGQPPRLLIYGASNRAAGIPDRFSGSGSGTDFTLTISRLEPEDFAVYYCQQYETSSRTFGQGTKVDIR
As to B10, the EC50 stood at 1.06 nM with HeV-G and 1.23 nM with NiVM-G.

B11: HENV-103 (antibody, V domains shown)
VH: QVQLQGSGPGLVKPSQTLSLTCSVSGGSVSRSGYYWGWIRQHPGKGLECIGYIYYSGITYYNPSLSGRLTISVDTSKNQFSLELSSVTAADTAVYYCARVWLGGGVFDFWGQGSLVTVSS
VL: EIVMTQSPATLSVSPGEGATLSCRASQSVSSNLAWYQQKPGQAPRLLIYDASTRATGIPARFSGSGSGTEFTLTISSLQSEDFAVYYCQQYNDWRTFGRGTKVEMR
Turning to B11, the figures for the EC50 with HeV-G and with NiVM-G were 0.806 nM and 0.611 nM, respectively.

B12: HENV-99 (antibody, V domains shown)
VH: QVLLVQSGAEVRKPGASVKVSCRASGYTFTDYYMHWVRQAPGQGLEWMGWINPNSGATKYAQKFQGRVTLTRDTSINTAYMELSGLRSVDTAVFYCASVPPSGFFYWGSDYWGQGTLVTVSS
VL: DVVLTQSPLSLPVTLGQPASISCRSSQSLVYSDGTTYLNWFQQRPGQSPRRLIYKVSYRDSGVPDRFSGSGSGTDFTLEISRVEAEDVGIYYCMHGTHWETWTFGQGTKVEIK
Turning to B12, the EC50 with HeV-G stood at 0.42 nM; with NiVM-G, 0.294 nM.

B13: HENV-184 (antibody, V domains shown)
VH: QVQLVQSGTEVKNPGSSVKVSCKASGGTFSGFGISWVRQAPGQGLEWMGGVLPIFGSPNYAQKFQGRVTITADESTGTAYMDLSSLRSDDTAMYYCARDQSGGFFDYWGQGTLVIVSS
VL: EIVLTQSPATLSLSPGERATLSCRASQSVSSNLAWYQQKPGQAPRLLIYDASDRATGVPARFSGSGSGTDFTLTISSLEPEDFALYYCQQRYNWRVTFGQGTRLEIK
Consider B13, for which the EC50 with HeV-G was 1.19 nM; in the assay with NiVM-G, 0.622 nM.

B14: HENV-222 (antibody, V domains shown)
VH: QVQLQESGPGLVKPSETLSLTCTVSGGSIDSYYWSWIRQPAGKGLEWIGRIYPSGTTNYNPSLKSRVTMSVDTSKNQFSLKVTSVTAADTAVYYCARMQTGFGSSLFFVPYFDNWGQGTLVTVSS
VL: EIVLTQSPATLSLSPGERATLSCRASQSVSSYLAWYQQKPGQAPRLLIYDASNRATGIPARFSGSGSGTDFTLTISSLEPEDFAVYYCQQRGNWPLTFGGGTKVEIK
Consider B14, for which the concentration for a half-maximal effect (EC50) with HeV-G came out at 5.66 nM; in the assay with NiVM-G, 0.586 nM.
